Article PMC4351549

Target: CeHSP17 protein (small heat shock protein from Caenorhabditis elegans) (Caenorhabditis elegans)
Experiment: cryo-EM structure; single particle 3D reconstruction, 14,217 particles, images obtained at 4°C, tetrahedral symmetry, 14.5 Å

“CeHSP17 protein (small heat shock protein from Caenorhabditis elegans) (natural protein)” was tested. Which stoichiometry N did it give?
The stoichiometry N was 24 subunits.
